Molecular target: bovine brain tubulin (alpha-beta heterodimer), polymerized into taxol-stabilized microtubules (bovine) (UniProt Q6B856)
Test: negative stain electron microscopy

percent of microtubules with rings	Substance
< 10%	KLP10A MD K350A (from UniProt Q960Z0 279-615) (domain or fragment)
< 10%	KLP10A MD K399A (from UniProt Q960Z0 279-615) (domain or fragment)
